Test results taken from patent publication EP1759709B1 (Elan Pharmaceuticals Inc., dated 2013).
Numbering of substitutions follows the chain as printed.

Biological target: T1, human α4β1 integrin (human, UniProt P13612 34-1032; P05556 21-798)
T1 construct: whole, on cells; also called VLA-4; alpha-4-beta-1 integrin
Assay: ELISA on L cells expressing α4β1 integrin; crude supernatants

B1: reshaped human 21.6 antibody (La + Ha) (antibody, V domains shown)
VH: QVQLVQSGAEVKKPGASVKVSCKASGFNIKDTYIHWVRQAPGQRLEWMGRIDPANGYTKYDPKFQGRVTITADTSASTAYMELSSLRSEDTAVYYCAREGYYGNYGVYAMDYWGQGTLVTVSS
VL: DIQMTQSPSSLSASVGDRVTITCKTSQDINKYMAWYQQTPGKAPRLLIHYTSALQPGIPSRFSGSGSGRDYTFTISSLQPEDIATYYCLQYDNLWTFGQGTKVEIK
notes: Expressed in Cos cells
binding result: binds

B2: reshaped human 21.6 antibody (Lb + Ha) (antibody, V domains shown)
VH: B1 VH
VL: B1 VL with H49Y
notes: Human kappa / human gamma-1 constant regions; tested as crude Cos supernatant; Lb is therefore built here from La with the stated change; also called version Lb in combination with version Ha
binding result: binds
